For series [1], the target named is T1, NaV1.5 ΔKPQ mutant (Homo sapiens, UniProt Q14524, DEL1505-1507).
T1 construct: expressed in transfected cells; host or cells: HEK293 (ATCC CRL1573)
As to the kind of experiment: Multichannel recordings of late Na current, NaV1.5 ΔKPQ mutant in HEK293 cells. Type of series: cell-based. An excerpt:
(§1) The human NaV1.5 channel corresponds to clone M77235.1 (GenBank) and is subcloned into pGW 1 vector with HindIII and SaII. To facilitate construction of channelopathic mutations in the channel carboxy-terminus, we introduced silent mutations into NaV1.5 to introduce an NruI cutting site near the channel carboxy-terminus (5329-gtggccacg-5337 into 5329-gtCgcGacg-5337). Subsequently, we used overlap-extension PCR and ligated the PCR product into NaV1.5/pGW1 using NruI and XbaI restriction sites (mutations: E1784K, S1904L, IQ/AA, and Q1909R). For generating the ΔKPQ and IFM/IQM mutations, we used overlap-extension PCR and ligated in NaV1.5/pGW1 following restriction digest using KpnI and XbaI site. For generation of NaV1.5 truncations, we PCR amplified relevant segments using a forward primer upstream of the KpnI site and a reverse primer that truncated at the appropriate location (Δ1810 and Δ1885) and included an XbaI site and ligated into NaV1.5/pW1 vector. For LILA/WICW mutations, we used overlap extension and used restriction site AgeI and NheI for subsequent ligation. All segments subjected to PCR amplification were verified by sequencing. For generating human FHF2 splice-variants, we synthesized gene fragments and ligated into pcDNA3 using BamHI/EcoRI restriction sites. Human FHF1A and FHF1B were subcloned into ECFP-N3 vector, FHF2 splice variants and FHF3 were subcloned into pcDNA3. […]

Series [2] has as its target T2, NaV1.5 S1904L mutant channel (Homo sapiens, UniProt Q14524, S1904L).
T2 construct: expressed in transfected cells; host or cells: HEK293 (ATCC CRL1573)
As to the kind of experiment: Multichannel recordings of late Na current, NaV1.5 S1904L. Type of series: cell-based. The note with it: co-expression.
Protocol: HEK293 cells (ATCC CRL1573) were cultured on glass coverslips in 60-mm dishes and transfected using the Ca^2+-phosphate method as previously described. For electrophysiology experiments, we co-transfected 4-8 μg of cDNA encoding the desired channel variant with 4 μg of YFP, and 1 μg of simian virus 40 T-antigen. […] The culture media was replaced following 4 h of transfection. Electrophysiology recordings were then performed at room temperature 1-2 days following transfection.
Multichannel records were obtained in the on-cell configuration with either HEK293 cells or in aMVM as in our previous study. The pipette contained (in mM): 140 NaCl; 10 HEPES; 0.5 CaCl2; at 300 mOsm, adjusted with tetraethylammonium methanesulfonate; and pH 7.4 adjusted with tetraethylammonium hydroxide. To zero membrane potential, the bath contained (in mM): 132 K^+-glutamate; 5 KCl; 5 NaCl; 3 MgCl; 2 EGTA; 10 glucose; 20HEPES; at 300 mOsm adjusted with glucose; and pH 7.4 adjusted with NaOH. Data were acquired at room temperature using the integrating mode of an Axopatch 200A amplifier (Axon Instruments, Molecular Devices). Patch pipettes (3-10 MΩ) were pulled from ultra-thick-walled borosilicate glass (BF200-116-10; Sutter Instruments) using horizontal puller (P-97, Sutter Instruments), fire polished with a microforge (Narishige), and coated with Sylgard™ brand silicone elastomer (Dow Corning). Elementary currents were low-pass filtered at 2 kHz with a four-pole Bessel filter and digitized at 200 kHz with an ITC-18 unit (Instrutech), controlled by custom MATLAB software (Mathworks). For each pulse, we obtained P/8 leak pulses. Leak subtraction was performed using an automated algorithm which fit the kinetics of the leak current or the capacitive transient with convex optimization with L1 regularization.

The target of series [3] is T3, NaV1.5 S[1885]* (Homo sapiens, UniProt Q14524).
T3 construct: expressed in transfected cells; host or cells: HEK293 (ATCC CRL1573)
As to the kind of experiment: Multichannel recordings of late Na current, NaV1.5 S[1885]* truncation. Type of series: cell-based. The following applies: co-expression.
Excerpt: as §1

Series [4] deals with HEK293 cells. Format: in vitro ADME. The following applies: 10 μM. The protocol: The peptide encoding FixR-cpp was chemically synthesized by Genscript (98% purity) to contain the cell permeating viral TAT sequence in the amino-terminus: […] (SEQ ID NO. 2). The amino terminus of the peptide contained a FITC fluorophore to visualize cell uptake. The peptide was resuspended in DMSO. Flow cytometric assays were performed to quantify FixR cellular uptake in both HEK293 cells and freshly dissociated aMVM. HEK293 cells were cultured in 12 well plates and incubated with different concentrations of FixR-cpp for 2 hours and stained for cell death detection using LIVE/DEAD™ Fixable Far Red Dead Cell Stain Kit (ThermoFisher Scientific, L10120). Similarly, non-TG and IQ/AA^tg freshly dissociated aMVM were incubated with various concentrations of FixR-cpp for 2 hours in Tyrode's solution (138 mM NaCl, 4 mM KCl, 1 mM MgCl2, 10 mM HEPES (pH 7.4 using NaOH), 0.2 mM NaHPO4 5 mM D-glucose, 1 mM CaCl2). For cellular uptake measurements, we utilized an LSR II (BD Biosciences) flow cytometer equipped with 405 nm, 488 nm, and 633 nm lasers for excitation and 18 different emission channels. Forward and side scatter signals were detected and used to gate for single and healthy cells. […] Histograms from the Fluorescein 5(6)-isothiocyanate (FITC) and Allophycocyanin (APC) channels for the single-cell population were obtained and analyzed using FlowJo (version X, FlowJo LLC).

As for “FixR: minimal 39-amino-acid FHF1A amino-terminal effector domain, MAAAIASSLIRQKRQARESNSDRVSASKRRSSPSKDGRS (SEQ ID NO: 4), expressed as peptide”, the “change in INa,L” value is given as “inhibits INa,L” in series [1] (co-expression with NaV1.5 ΔKPQ in HEK293 cells), “inhibits INa,L” in series [2] and “strongly inhibits” in series [3].

Regarding “FixR-cpp: FixR fused to HIV-1 TAT transduction domain, YGRKKRRQRRRAAAIASSLIRQKRQARESNSERVSASKRRSSPSKG (SEQ ID NO: 2)”, in series [1] (2-hour incubation with 10 μM FixR-cpp), the “change in INa,L” value is “diminished INa,L”. In series [4] (2 hours of incubation, FITC-tagged), the “cells showing increased fluorescence compared to background” value is listed as around 90%. For the same substance, the “enhancement in fluorescence intensity” value in series [4] (2 hours, flow-cytometry) is reported as around 100 fold.

(Values after patent US20250049953A1, “TREATMENT AND METHOD FOR INHIBITING LATE NA CURRENT” (THE TRUSTEES OF COLUMBIA UNIVERSITY IN THE CITY OF NEW YORK, priority 2022, published 2025).)
